PMC2887963 (Nucleic Acids Research, 2010)

Tests used:
[1] = biological target: the molecule itself
[2] = biological target: T1, (His)6-RcsB (Escherichia coli, UniProt P0DMC7 1-216); test: native gel or EMSA
T1 sequence: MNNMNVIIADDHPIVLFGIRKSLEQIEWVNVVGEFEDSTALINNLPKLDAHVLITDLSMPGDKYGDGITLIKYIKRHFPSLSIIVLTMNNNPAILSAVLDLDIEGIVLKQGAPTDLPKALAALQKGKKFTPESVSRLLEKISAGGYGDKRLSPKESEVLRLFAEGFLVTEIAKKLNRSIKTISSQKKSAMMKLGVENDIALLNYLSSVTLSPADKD

[3] = biological target: T2, MBP-RcsB (Escherichia coli (MG1655 strain), UniProt P0DMC7 1-216); test: native gel or EMSA
T2 sequence: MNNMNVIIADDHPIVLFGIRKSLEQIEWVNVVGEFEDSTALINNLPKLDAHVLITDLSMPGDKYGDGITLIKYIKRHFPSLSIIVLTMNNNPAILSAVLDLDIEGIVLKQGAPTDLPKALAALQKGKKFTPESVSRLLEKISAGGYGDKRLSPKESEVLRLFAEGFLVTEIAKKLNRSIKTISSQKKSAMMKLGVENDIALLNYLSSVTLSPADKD

[4] = biological target: T3, (His)6-RcsB (Escherichia coli, UniProt P0DMC7 1-216); test: EMSA
T3 sequence: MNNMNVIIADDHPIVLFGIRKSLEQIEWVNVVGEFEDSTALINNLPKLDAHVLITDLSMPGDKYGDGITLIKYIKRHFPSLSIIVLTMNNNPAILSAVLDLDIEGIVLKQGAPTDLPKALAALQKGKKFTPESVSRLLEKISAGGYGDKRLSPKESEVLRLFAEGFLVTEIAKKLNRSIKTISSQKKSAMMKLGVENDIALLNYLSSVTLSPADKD

B1: MBP-GadE (natural protein)
chain: MIFLMTKDSFLLQGFWQLKDNHEMIKINSLSEIKKVGNKPFKVIIDTYHNHILDEEAIKFLEKLDAERIIVLAPYHISKLKAKAPIYFVSRKESIKNLLEITYGKHLPHKNSQLCFSHNQFKIMQLILKNKNESNITSTLNISQQTLKIQKFNIMYKLKLRRMSDIVTLGITSYF
stoichiometry N [1]: 2
binding result [2]: binds
binding result [3]: binds

B2: (His)6-GadE (natural protein)
chain: MIFLMTKDSFLLQGFWQLKDNHEMIKINSLSEIKKVGNKPFKVIIDTYHNHILDEEAIKFLEKLDAERIIVLAPYHISKLKAKAPIYFVSRKESIKNLLEITYGKHLPHKNSQLCFSHNQFKIMQLILKNKNESNITSTLNISQQTLKIQKFNIMYKLKLRRMSDIVTLGITSYF
binding result [2]: binds
binding result [3]: binds

B3: gadA promoter -101 to +24 (dsDNA)
DNA 1: GTTTATATTATAAAAAGTCGTTTTTCTGCTTAGGATTTTGTTATTTAAATTAAGCCTGTAATGCCTTGCTTCCATTGCGGATAAATCCTACTTTTTTATTGCCTTCAAATAAATTTAAGGAGTTC
DNA 2: GAACTCCTTAAATTTATTTGAAGGCAATAAAAAAGTAGGATTTATCCGCAATGGAAGCAAGGCATTACAGGCTTAATTTAAATAACAAAATCCTAAGCAGAAAAACGACTTTTTATAATATAAAC
binding result [4]: binds
